Reference: patent EP1888114B1

T1: human MCP-2 (human), P80075
T1 chain: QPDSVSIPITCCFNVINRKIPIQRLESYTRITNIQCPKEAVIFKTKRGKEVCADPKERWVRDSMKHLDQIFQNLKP


What was measured:
[1] = target: T2, human monocyte chemoattractant protein-1 (MCP-1) (human), P13500; experiment: SET, IGEN (BioVeris)
[2] = target: T2, human monocyte chemoattractant …; experiment: cell-based or functional assay
[3] = target: T2, human monocyte chemoattractant …; experiment: SET, BioVeris, Fab, rh MCP-1
[4] = target: T2, human monocyte chemoattractant …; experiment: 125I-MCP-1 binding to THP-1 cells, radio-ligand competition
[5] = target: cynomolgus monkey MCP-1 (cynomolgus monkey), P61274; experiment: SET, BioVeris, cyno MCP-1
[6] = target: T2, human monocyte chemoattractant …; experiment: SET, BioVeris, IgG1, rh MCP-1
[7] = target: cynomolgus monkey MCP-1 (cynomolgus monkey), P61274; experiment: SET, BioVeris, IgG1, cyno MCP-1
[8] = target: T1, human MCP-2 (human), P80075; experiment: 125I-MCP-2 binding to CCR2 on THP-1 cells, radio-ligand competition

T2 sequence (P13500 other isoform, or with tags, fused parts or gaps, form in doubt): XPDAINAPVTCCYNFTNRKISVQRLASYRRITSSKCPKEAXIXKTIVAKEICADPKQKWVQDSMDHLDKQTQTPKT
Sequence of cynomolgus monkey MCP-1 (cynomolgus monkey), P61274 (P61274 24-99 limits assumed): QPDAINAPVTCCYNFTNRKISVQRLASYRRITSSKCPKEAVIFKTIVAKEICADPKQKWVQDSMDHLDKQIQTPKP

Row | Binder | Kd [1] [nM] | Inhibition of Ca2+ Mobilization IC50 [2] [nM] | Kd [3] [nM] | IC50 [4] [nM] | Kd [5] [nM] | Kd [6] [nM] | Kd [7] [nM] | IC50 [8] [nM]
1 | MOR03790 Fab (Fab, V domains shown) VH: QVELVQSGAEVKKPGSSVKVSCKASGGTFSSYGISWVRQAPGQGLEWMGGIIPIFGTANYAQKFQGRVTITADESTSTAYMELSSLRSEDTAVYYCARYDGIYGELDFWGQGTLVTVSS VL: not shown | 0.12 | 25 | 0.12 | 0.26 |  |  |  | 
2 | MOR03781 Fab (Fab, V domains shown) VH: QVELVQSGAEVKKPGSSVKVSCKASGGTFSSYGISWVRQAPGQGLEWMGGIIPIFGTANYAQKFQGRVTITADESTSTAYMELSSLRSEDTAVYYCARYDGIYGELDFWGQGTLVTVSS VL: not shown | 0.03 | 21.8 | 0.03 | 0.18 |  |  |  | 
3 | MOR03850 Fab (Fab, V domains shown) VH: QVELVQSGAEVKKPGSSVKVSCKASGGTFSSYGISWVRQAPGQGLEWMGAINPLAGHTHYAQKFQGRVTITADESTSTAYMELSSLRSEDTAVYYCARYDGIYGELDFWGQGTLVTVSS VL: not shown | 0.04 | 28.4 | 0.04 | 0.16 |  |  |  | 
4 | MOR03790 IgG1 (antibody, V domains shown) VH: QVELVQSGAEVKKPGSSVKVSCKASGGTFSSYGISWVRQAPGQGLEWMGGIIPIFGTANYAQKFQGRVTITADESTSTAYMELSSLRSEDTAVYYCARYDGIYGELDFWGQGTLVTVSS VL: not shown | 0.07 | 4.26 |  | 0.03 |  | 0.07 |  | 
5 | MOR03754 Fab (Fab, modifications not checked) chain 1: QVQLVESGGGLVQPGGSLRLSCAASGFTFRSYGMSWVRQAPGKGLEWVSSIEHKWSGYATTYAASVKGRFTISRDNSKNTLYLQMNSLRAEDTAVYYCARFEFTPWTYFDFWGQGTLVTVSS chain 2: DIELTQPPSVSVAPGQTARISCSGDNLGKKYVYWYQQKPGQAPVLVIYDDDNRPSGIPERFSGSNSGNTATLTISGTQAEDEADYYCQSYTAQSSASFGGGTKLTVL |  |  |  |  |  |  |  | > 2000

The remaining lines, values ahead:

Row | Kd [1] [nM] | Inhibition of Ca2+ Mobilization IC50 [2] [nM] | Kd [3] [nM] | IC50 [4] [nM] | Kd [5] [nM] | Kd [6] [nM] | Kd [7] [nM] | IC50 [8] [nM] | Binder
6 | 0.01 | 9.47 |  | 0.05 | 0.01 | 0.011 | 0.021 |  | MOR03850 IgG1 (antibody, modifications not checked) chain 1: QVELVQSGAEVKKPGSSVKVSCKASGGTFSSYGISWVRQAPGQGLEWMGAINPLAGHTHYAQKFQGRVTITADESTSTAYMELSSLRSEDTAVYYCARYDGIYGELDFWGQGTLVTVSS chain 2: not shown
7 | 0.02 | 10.9 |  | 0.02 |  | 0.02 |  |  | MOR03781 IgG1 (antibody, V domains shown) VH: QVELVQSGAEVKKPGSSVKVSCKASGGTFSSYGISWVRQAPGQGLEWMGGIIPIFGTANYAQKFQGRVTITADESTSTAYMELSSLRSEDTAVYYCARYDGIYGELDFWGQGTLVTVSS VL: not shown
